Reference: patent publication US20200316217A1

Legend:
Experiment in all cases: cell-based or functional assay
Human PTHR1 WT (human) = Human PTHR1 WT (human) (UniProt Q03431)
PTHR16E (human) = PTHR16E (human) (UniProt Q03431)
PTHR1GFP (human) = PTHR1GFP (human) (UniProt Q03431)
PTHR1YFPΔECD (human) = biological target: PTHR1YFPΔECD (human)
rat PTHR1 (rat) = rat PTHR1 (rat) (UniProt P25961)
human PTHR2 (human) = human PTHR2 (human) (UniProt P49190)
Sequence of human PTHR2 (human) (P49190 25-550): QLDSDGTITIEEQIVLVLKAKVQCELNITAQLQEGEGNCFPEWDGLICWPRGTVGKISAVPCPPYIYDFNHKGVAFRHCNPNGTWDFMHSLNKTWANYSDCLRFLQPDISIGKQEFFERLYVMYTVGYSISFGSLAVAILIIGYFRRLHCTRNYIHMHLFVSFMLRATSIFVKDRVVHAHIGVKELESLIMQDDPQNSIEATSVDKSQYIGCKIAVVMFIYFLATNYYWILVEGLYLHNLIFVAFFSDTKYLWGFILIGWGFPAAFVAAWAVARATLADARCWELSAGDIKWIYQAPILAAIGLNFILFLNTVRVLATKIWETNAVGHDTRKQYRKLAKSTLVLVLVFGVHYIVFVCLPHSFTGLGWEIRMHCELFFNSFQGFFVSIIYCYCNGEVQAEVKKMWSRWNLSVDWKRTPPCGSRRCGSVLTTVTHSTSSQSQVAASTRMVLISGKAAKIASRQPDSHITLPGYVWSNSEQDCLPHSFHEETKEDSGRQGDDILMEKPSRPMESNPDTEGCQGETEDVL

Sequence of rat PTHR1 (rat) (P25961 27-591): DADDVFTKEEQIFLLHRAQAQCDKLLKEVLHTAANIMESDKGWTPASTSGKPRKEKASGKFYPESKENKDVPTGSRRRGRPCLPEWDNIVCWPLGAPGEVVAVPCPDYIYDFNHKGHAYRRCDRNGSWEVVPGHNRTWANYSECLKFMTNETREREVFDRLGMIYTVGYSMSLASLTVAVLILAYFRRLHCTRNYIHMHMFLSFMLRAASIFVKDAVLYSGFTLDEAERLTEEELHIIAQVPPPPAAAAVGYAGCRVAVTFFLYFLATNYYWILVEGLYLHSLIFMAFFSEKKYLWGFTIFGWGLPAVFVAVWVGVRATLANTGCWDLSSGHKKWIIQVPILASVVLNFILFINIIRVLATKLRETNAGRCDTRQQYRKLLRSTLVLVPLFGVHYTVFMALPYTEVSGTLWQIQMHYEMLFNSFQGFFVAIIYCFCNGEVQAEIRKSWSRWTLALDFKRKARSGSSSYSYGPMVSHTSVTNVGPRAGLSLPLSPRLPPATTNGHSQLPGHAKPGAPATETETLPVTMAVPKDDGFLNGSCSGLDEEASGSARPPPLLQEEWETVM

| Stimulation of receptor (cAMP), EC50 (Human PTHR1 WT (human)) [nM] | cAMP induction EC50 (Human PTHR1 WT (human)) [nM] | Stimulation of receptor (cAMP), EC50 (PTHR16E (human)) [nM] | cAMP induction EC50 (PTHR16E (human)) [nM] | cAMP induction EC50 (PTHR1GFP (human)) [nM] | Stimulation of receptor (cAMP), EC50 (PTHR1YFPΔECD (human)) [nM] | cAMP induction EC50 (PTHR1YFPΔECD (human)) [nM] | cAMP induction Max (normalized) (Human PTHR1 WT (human)) | cAMP induction Max (normalized) (PTHR16E (human)) | cAMP induction Max (normalized) (PTHR1GFP (human)) | cAMP induction Max (normalized) (PTHR1YFPΔECD (human)) | cAMP induction EC50 (rat PTHR1 (rat)) [nM] | Substance | other results |
| --- | --- | --- | --- | --- | --- | --- | --- | --- | --- | --- | --- | --- | --- |
| > 10000 | > 10000 | > 10000 | > 10000 | > 10000 | > 10000 | > 10000 | – | – | – | – | – | PTH(1-9) (peptide) | – |
| > 100 | > 100 | > 100 | > 100 | 8 | 0.14 | 0.14 | – | – | 1.1 | 1.19 | > 100 | VHHGFP-PTH(1-11) | activation of PTHR1 (Human PTHR1 WT (human)): > 100 nM; activity, fold enhancement against PTH(1-11) (PTHR1YFPΔECD (human)): > 20000 fold |
| > 100 | > 100 | > 100 | > 100 | 1.8 | 0.58 | 0.58 | – | – | 1.21 | 1.16 | – | VHHGFP-PTH(1-14) | – |

Continued, substance first:

| Substance | Stimulation of receptor (cAMP), EC50 (Human PTHR1 WT (human)) [nM] | cAMP induction EC50 (Human PTHR1 WT (human)) [nM] | Stimulation of receptor (cAMP), EC50 (PTHR16E (human)) [nM] | cAMP induction EC50 (PTHR16E (human)) [nM] | cAMP induction EC50 (PTHR1GFP (human)) [nM] | Stimulation of receptor (cAMP), EC50 (PTHR1YFPΔECD (human)) [nM] | cAMP induction EC50 (PTHR1YFPΔECD (human)) [nM] | cAMP induction Max (normalized) (Human PTHR1 WT (human)) | cAMP induction Max (normalized) (PTHR16E (human)) | cAMP induction Max (normalized) (PTHR1GFP (human)) | cAMP induction Max (normalized) (PTHR1YFPΔECD (human)) | cAMP induction EC50 (rat PTHR1 (rat)) [nM] | other results |
| --- | --- | --- | --- | --- | --- | --- | --- | --- | --- | --- | --- | --- | --- |
| PTH(1-10) (peptide) | 3120 | 3120 | 5080 | 5080 | 2550 | 3840 | 3840 | 1.03 | 1.09 | 1.16 | 1.12 | 2470 | cAMP induction Max (normalized) (rat PTHR1 (rat)): 1.09 normalized |
| PTH(1-11) (peptide) | 516 | 516 | 94 | 94 | 79 | 246 | 246 | 1.01 | 1.09 | 1.1 | 1.02 | 120 | half maximal stimulation (cAMP-sensitive luciferase) (PTHR1GFP (human)): 200 nM; cAMP induction EC50 (human PTHR2 (human)): > 100000 nM; cAMP induction Max (normalized) (human PTHR2 (human)): 0.36 normalized; cAMP induction, percent at 100 uM (human PTHR2 (human)): 20 % at 100 µM; cAMP induction Max (normalized) (rat PTHR1 (rat)): 1.02 normalized |
| PTH(1-14) (peptide) | 4.3 | 4.3 | 3.4 | 3.4 | 2.3 | 1.1 | 1.1 | 1.01 | 1.06 | 1.09 | 0.96 | – | cAMP induction EC50 (human PTHR2 (human)): 924 nM; cAMP induction Max (normalized) (human PTHR2 (human)): 1.14 normalized |
| VHHGFP-PTH(1-9) | – | – | – | – | > 100 | – | – | – | – | – | 0.38 | – | Stimulation of receptor (cAMP), percent activation (% activation at 100 nM) (PTHR1YFPΔECD (human)): 40; cAMP induction, percent activation (% activation at 100 nM) (PTHR1YFPΔECD (human)): 40 |
| VHHGFP-PTH(1-10) | – | – | – | – | > 100 | 0.46 | 0.46 | – | – | – | 1.06 | – | potency, fold against PTH(1-10) (PTHR1YFPΔECD (human)): 7800 fold |
